Drawing on publication PMC6382870, this text covers stoichiometry N for 5 substances.

For test [1], the target named is MrNVPd (246-371) (Macrobrachium rosenbergii nodavirus (MrNV)). The test can be described thus: SEC; P-domains without the SUMO-tag; column and buffer not stated. Background: Size exclusion chromatography separates by hydrodynamic size, large species first.
Test [2] concerns the target MrNVPd double-mutant K327A/D329A (Macrobrachium rosenbergii nodavirus (MrNV)). The description is as above.
In test [3] the target is MrNVPd double-mutant Y293A/D295A (Macrobrachium rosenbergii nodavirus (MrNV)). The description is as above.
The target of test [4] is PvNV capsid protein (1-368) (Penaeus vannamei nodavirus (PvNV)). The test is described as follows: cryo-EM structure; T = 1 PvNV-LP particles (~22-24 nm) picked from the same sample, icosahedral symmetry, 3.7 Å.
For test [5] the target is unchanged. The test can be described thus: cryo-EM structure; T = 3 PvNV-LP particles (~29-35 nm) picked from the assembled sample, 6 mg/mL, icosahedral symmetry, 3.5 Å.
Test [6] deals with PvNVPd (250-368) (Penaeus vannamei nodavirus (PvNV)). The test can be described thus: SEC; P-domains without the SUMO-tag; column and buffer not stated.

Broadly, the stoichiometry N is a count of units in the complex or per binding partner. With MrNVPd (246-371) (domain or fragment), the stoichiometry N in test [1] came out at 2.
On to “MrNVPd double-mutant K327A/D329A (domain or fragment)”, for which the stoichiometry N in test [2] amounted to 2.
Substance “MrNVPd double-mutant Y293A/D295A (domain or fragment)” showed a stoichiometry N in test [3] of 2.
Turning to “PvNV capsid protein (1-368) (natural protein)”, the stoichiometry N in test [4] is 60; in test [5], 180 copies.
Substance PvNVPd (250-368) (domain or fragment) registered a stoichiometry N in test [6] of 2.
